# In paper PMC3783652 (ACS chemical biology, 2013):
# B1: 9SDNsYTEE15, sTyr12 sulfopeptide of CXCR4 (peptide)
# peptide: SDNYTEE
# HELM: PEPTIDE1{[ac].S.D.N.[O=C([C@H](Cc1ccc(OS(=O)(=O)O)cc1)N[*:1])[*:2]].T.E.E.[am]}$$$$V2.0
# SMILES: CC(=O)N[C@@H](CO)C(=O)N[C@@H](CC(=O)O)C(=O)N[C@@H](CC(N)=O)C(=O)N[C@@H](Cc1ccc(OS(=O)(=O)O)cc1)C(=O)N[C@H](C(=O)N[C@@H](CCC(=O)O)C(=O)N[C@@H](CCC(=O)O)C(N)=O)[C@@H](C)O
# B2: 4ISIsYTSD10, sTyr7 sulfopeptide of CXCR4 (peptide)
# peptide: ISIYTSD
# HELM: PEPTIDE1{[ac].I.S.I.[O=C([C@H](Cc1ccc(OS(=O)(=O)O)cc1)N[*:1])[*:2]].T.S.D.[am]}$$$$V2.0
# SMILES: CC[C@H](C)[C@H](NC(C)=O)C(=O)N[C@@H](CO)C(=O)N[C@H](C(=O)N[C@@H](Cc1ccc(OS(=O)(=O)O)cc1)C(=O)N[C@H](C(=O)N[C@@H](CO)C(=O)N[C@@H](CC(=O)O)C(N)=O)[C@@H](C)O)[C@@H](C)CC
# B3: 18SGDsYDSM24, sTyr21 sulfopeptide of CXCR4 (peptide)
# peptide: SGDYDSM
# HELM: PEPTIDE1{[ac].S.G.D.[O=C([C@H](Cc1ccc(OS(=O)(=O)O)cc1)N[*:1])[*:2]].D.S.M.[am]}$$$$V2.0
# SMILES: CSCC[C@H](NC(=O)[C@H](CO)NC(=O)[C@H](CC(=O)O)NC(=O)[C@H](Cc1ccc(OS(=O)(=O)O)cc1)NC(=O)[C@H](CC(=O)O)NC(=O)CNC(=O)[C@H](CO)NC(C)=O)C(N)=O
# What was measured:
# [1] = target: wild type CXCL12 (stromal cell-derived factor-1/SDF-1) (UniProt P48061 22-93); assay: NMR titration
# [2] = target: CXCL12_(1), constitutively monomeric CXCL12 variant (L55C/I58C) (UniProt P48061 22-93, L55C | I58C); assay: NMR titration
Binder,Kd [1],Kd [2]
B1,1000 µM,1800 µM
"Ac-SDNYTEE-NH2 [9SDNYTEE15, unsulfated Tyr12 peptide of CXCR4]",2100 µM,2700 µM
B2,4300 µM,6100 µM
"Ac-ISIYTSD-NH2 [4ISIYTSD10, unsulfated Tyr7 peptide of CXCR4]",1900 µM,1100 µM
B3,1800 µM,1600 µM
"Ac-SGDYDSM-NH2 [18SGDYDSM24, unsulfated Tyr21 peptide of CXCR4]",2700 µM,1500 µM
